Source: paper PMC3531509

Biological target: rabbit muscle actin (rabbit) (UniProt P68135)
Experiment: ELISA

Substance: Calmodulin-like calcium binding protein EhCaBP3 of Entamoeba histolytica (recombinant, wild type) (natural protein)
- percent inhibition of binding by EGTA: 75%
